Results as given in patent publication US20070037736A1, “Therapeutic composition comprising the KAL protein and use of the KAL protein for the treatment of retinal, renal, neuronal and neural injury” (INSTITUT PASTEUR, priority 1997, published 2007).

Experiments:
CHO-K1 cells = assay: Adhesion and inhibition assay, colorimetric; assay type: cell-based, Chinese Hamster
Experimental: (§1) Adhesion assays were performed as described in (à compléter) with some modifications. Coating with the various molecules, at the indicated concentrations in 0.5 ml PBS, was performed in plastic 24-well multidishes (Nunclon™) at 37° C. (1 h or overnight).The cells were then washed three times with PBS, coating blocked with 1% heat-inactivated BSA (à compléter) for at least 1 h at 37° C., followed by three PBS washes, before addition of the cells (10^6 cells per ml in serum-free medium containing 0.1% heat-inactivated BSA). In standard experiments, purified KAL was applied at 3 μg/ml. Other substrates were used as control, fibronectin ([…]) and poly-L-lysine (100 μg/ml).
(§2) Cells were incubated for 30 min to 1 h on coated wells. Medium was then aspirated and unbound cells removed by one wash with PBS. The adherent cells were fixed with […] paraformaldehyde (PFA) in PBS and stained with 0.1% crystal violet. Quantification of the attached cells was performed using a colorimetric method (à compléter). Data are expressed as the percentage of adherent cells on each tested substrate with reference to poly-L-lysine. Assays in triplicate were repeated in three independent experiments.
Heparin, heparan sulfate or chondroitin sulfate (up to 1 mg/ml in PBS) was added in KAL-coated-BSA-saturated wells, and allowed to interact for 2 h at 37° C. […]

CHO-677 cells = assay: Adhesion assay with HS-deficient mutant cells; assay type: cell-based, Chinese Hamster
From the text: The parental CHO cell line and the human KAL-transfected CHO clones (1-1 and 2-3) were cultivated in DMEM medium supplemented with 8% fetal calf serum (PAA, Jacques Boy, France). • Cells from the olfactory neuronal line 13.S.1.24 also named “line 24” (kindly provided by Dr. Astic, Lyon, France) were cultivated in DMEM supplemented with 10% calf serum. Porcine kidney epithelial cells (LLCPK) ATCC NO CRL1392 • Mouse GnRH neurons (GT1, subclone 1) • Wild-type CHO-K1, mutant CHO-K1-677 (Lidholt K. et al., 1992) and CHO-K1-606 (Bame et al., 1994) cell lines were provided to us by Dr. Esko, the mutant CHO-K1-745 (Esko et al., 1987) cell line was obtained from ATCC. The CHO-K1-677 cells display undetectable levels of heparan-sulfate (HS), but synthesize chondroitin sulfate (CS) at a level 3 times higher than wild-type CHO-K1 cells. The CHO-K1-606 cells express HS and CS at levels similar to those observed in wild-type, but HS is 2 to 3 times less sulfated than in wild-type cells. The CHO-K1-745 cells, deficient in xylosyltransferase, synthesize neither HS nor CS (Esko et al., 1987). Wild-type and mutant CHO-K1cells were maintained in Ham F12 medium supplemented with 10% fetal calf serum.
Adhesion assays were performed as described in (à compléter) with some modifications. Coating with the various molecules, at the indicated concentrations in 0.5 ml PBS, was performed in plastic 24-well multidishes (Nunclon™) at 37° C. (1 h or overnight).The cells were then washed three times with PBS, coating blocked with 1% heat-inactivated BSA (à compléter) for at least 1 h at 37° C., followed by three PBS washes, before addition of the cells (10^6 cells per ml in serum-free medium containing 0.1% heat-inactivated BSA). In standard experiments, purified KAL was applied at 3 μg/ml. […]
(§3) Cells were incubated for 30 min to 1 h on coated wells. […] Quantification of the attached cells was performed using a colorimetric method (à compléter). Data are expressed as the percentage of adherent cells on each tested substrate with reference to poly-L-lysine. […]

[1] = test system: olfactory neurons (line 24); assay: Spreading and neurite growth on coated substrates; assay type: cell-based, rat; settings: for mean neurite length per olfactory neuron: mean ± SEM
Experimental: FIG. 28: Mean neurite length on the different substrates after one hour, two hours and eight hours in vitro. Mean value±SEM. More than 100 neurons were analyzed in each experimental condition.
Cells, in serum-free medium containing 0.1% heat inactivated BSA were seeded on KAL- or laminin-coated wells, and maintained for 20 min to 22 h at 37° C. Adherent cells were fixed, stained with toluidine blue, and photographied with an inverted microscope.

PC12 cells [2] = assay: Adhesion assay on coated wells, cell counter; includes antibody, heparin and R1-FNIII inhibition; assay type: cell-based, rat
Experimental: (§4) 24-well microtiter plates were coated at 37 °C overnight with 20 μg/ml of laminin, 5μg/ml of KAL in PBS, pH=7.4. The plates were washed twice with PBS and non specific sites were blocked by the addition of 1% BSA in PBS for 1 hour at 37° C. Wells were washed twice with PBS. Cerebellar neurons or PC12 cells were resuspended in DMEM to a final concentration of 10^6 cells/ml. 500 μl of this suspension was added to each coated well. Cells were also added to control wells that had been coated with BSA alone. Plates were incubated at 37° C. for 90 min in a 5% CO2 humidified atmosphere. The wells were washed gently twice with 0.5 ml PBS. To remove adherent cells from the wells, 0.5 ml of 0.05% trypsin-EDTA were added to each well. After 10 min at 37 °C, the 0.5 ml of trypsin-EDTA containing the detached cells were removed and the number of cells was determined by using a cell counter (Coutler, ZM equipped with a Coultronic 256 channelizer).
(§5) Each cell adhesion assay was carried out in triplicate. The ration of adherent cells with respect to the total number of cell ×100 was determined as the % of cell adhesion.
For inhibition of cell adhesion, 5 ×10^5 PC12 cells were deposited on areas previously coated with KAL and with antiserum directed against the human KAL protein at different concentrations and treated as described for adhesion assay. […]

PC12 cells [3] = assay: Adhesion and inhibition assay, colorimetric; assay type: cell-based, rat; settings: HS or CS pretreatment of KAL-coated wells; data not shown
Experimental: as §1, §2
Cells were incubated for 5 min at room temperature in HBSS containing 5 mM EDTA, washed once with HBSS and preincubated for 1 h at 4° C. in HBSS containing 0.1% BSA in the absence or in the presence of Ca^++ and/or Mg^++ prior plating.
Heparin, heparan sulfate or chondroitin sulfate (up to 1 mg/ml in PBS) was added in KAL-coated-BSA-saturated wells, and allowed to interact for 2 h at 37° C. After three washings with PBS, CHO-K1or PC12 cells were plated, and incubated as usual.
A 32 aminoacid peptide (32R1-FIG. 24) was synthesized (Syntiem laboratory). Control peptides were C17 (NH2CSLVPTKKKRRKTTDGF-COON) (SEQ ID NO:7) derived from the second fibronectin type III repeat of human KAL and C 16V (NHzCGSYANNNRYGRDPPTSV-000H), (SEQ ID NO:8) derived from the EYA1 protein (a completer). The peptides, at various concentrations (10 to 30 μg/ml), were directly adsorbed on polystyrene microtiter wells (Immulon 4, Nunc). […]

[4] = test system: P5 cerebellar granule cells; assay: Adhesion assay, colorimetric, relative to poly-L-lysine; assay type: cell-based, mouse; settings: 1 hour
Experimental: as §1, §2

cerebellar granule cells = assay: Adhesion assay on coated wells, adherent cells counted with a cell counter (% of total cells); assay type: cell-based, mouse; settings: coated dishes, 90 minute incubation
Experimental: Cerebellar cell cultures. Dissociated cell cultures were obtained from Swiss mouse cerebella on postnatal day 5. At this age, granule cells account for up to 90% of the total cell population, glial cells included. Cells were dissociated by combined trituration and trypsinisation, and grown in chemically defined medium DMEM/Ham's F12 (3 vol/1 vol) containing 0.2 mM glutamine, 5 μg/ml insulin, 100 μg/ml tranferrin, 20 nM progesterone, […] purrescine, 30 nM selenium 100 U/ml penicillin and 0.1 mg/ml streptomycin.
as §4, with “Cells were also added to control wells that had been coated with BSA alone. Plates were incubated at 37° C. for 90 min in a 5% CO2 humidified atmosphere. The wells were washed gently twice with 0.5 ml PBS. To remove adherent cells from the wells, 0.5 ml of 0.05% trypsin-EDTA were added to each well.” left out
as §5

[5] = test system: cerebellar granule neurons (aggregates); assay: Survival and neurite outgrowth of granule cell aggregates on coated substrates; assay type: cell-based, mouse; settings: 48 hours culture
Experimental: Reaggregate cultures of cerebellar neurons from mice on postnatal day-5 were prepared according to Gao et al. (1995). After dissociation, cells were further purified by preplating on a poly-L-Lysine treated (25 μg/ml) substrate for 30 min and plated in uncoated 96-well dishes (5 10^5 cells/well) in BME plus 10% horse serum, 5% fetal calf serum, 9 mg/ml glucose, 0.3 mg/ml glutamine, 50 U/ml penicillin and 0.1 mg/ml streptomycin. Aggregates (100-200 cells) were harvested after 24 h to be used in coculture experiments.
prepared as described in the Materials and Methods section. Cerebellar granule neurons were seeded on surfaces that had been coated with KAL protein. Polylysine and bovine serum albumin (BSA) were used as positive and negative controls respectively.

CHO-606 cells = assay: Adhesion assay with mutant cells expressing undersulfated HS; assay type: cell-based, Chinese Hamster; settings: KAL substrate, versus wild-type CHO-K1
From the text: (§6) The parental CHO cell line and the human KAL-transfected CHO clones (1-1 and 2-3) were cultivated in DMEM medium supplemented with 8% fetal calf serum (PAA, Jacques Boy, France). • Cells from the olfactory neuronal line 13.S.1.24 also named “line 24” (kindly provided by Dr. Astic, Lyon, France) were cultivated in DMEM supplemented with 10% calf serum. Porcine kidney epithelial cells (LLCPK) ATCC NO CRL1392 • Mouse GnRH neurons (GT1, subclone 1) • Wild-type CHO-K1, mutant CHO-K1-677 (Lidholt K. et al., 1992) and CHO-K1-606 (Bame et al., 1994) cell lines were provided to us by Dr. Esko, the mutant CHO-K1-745 (Esko et al., 1987) cell line was obtained from ATCC. The CHO-K1-677 cells display undetectable levels of heparan-sulfate (HS), but synthesize chondroitin sulfate (CS) at a level 3 times higher than wild-type CHO-K1 cells. The CHO-K1-606 cells express HS and CS at levels similar to those observed in wild-type, but HS is 2 to 3 times less sulfated than in wild-type cells. The CHO-K1-745 cells, deficient in xylosyltransferase, synthesize neither HS nor CS (Esko et al., 1987). […]
as §3

[6] = test system: olfactory neurons (line 24); assay: Adhesion and peptide/serum inhibition assay, colorimetric; assay type: cell-based, rat; settings: substrate coated to microtiter wells
Experimental: as §1, §2
A 32 aminoacid peptide (32R1-FIG. 24) was synthesized (Syntiem laboratory). Control peptides were C17 (NH2CSLVPTKKKRRKTTDGF-COON) (SEQ ID NO:7) derived from the second fibronectin type III repeat of human KAL and C 16V (NHzCGSYANNNRYGRDPPTSV-000H), (SEQ ID NO:8) derived from the EYA1 protein (a completer). The peptides, at various concentrations (10 to 30 μg/ml), were directly adsorbed on polystyrene microtiter wells (Immulon 4, Nunc). Adhesion assays were performed as described above.
In peptide inhibition assays, cells were preincubated with the peptides at different concentrations (10 to 100 μg/ml) for 1 h at 4° C., then plated to KAL-coated wells, and incubated for a further 30 min period of time.

CHO-745 cells = assay: Adhesion assay with HS- and CS-deficient mutant cells; assay type: cell-based, Chinese Hamster; settings: KAL substrate
From the text: as §6, §3

Molecule: chondroitinase ABC
- decrease of adhesion of CHO-K1 cells on KAL after enzyme treatment (CHO-K1 cells; cells treated prior plating): about 50%
- effect of enzyme treatment of CHO-677 cells on adhesion on fibronectin substrate (CHO-677 cells; data not shown): did not affect adhesion
- effect of enzyme treatment of CHO-677 cells on adhesion to KAL (CHO-677 cells; increasing concentrations, prior plating): virtually complete inhibition

Molecule: fibronectin [reference compound]
- mean neurite length per olfactory neuron ([1]; eight hours after plating): 63 (±2,5) μm
- mean neurite length per olfactory neuron ([1]; one hour on substrate): 46 (±4) μm

Molecule: heparin
- inhibition of CHO-K1 cell adhesion on KAL (CHO-K1 cells; KAL-coated wells preincubated with 100 μg/ml): approximately 50%
- heparin concentration from which adhesion of PC12 cells to KAL protein was inhibited (PC12 cells [2]; heparin present in KAL-coated wells): ≥ 0.03 mg/mL
- inhibition of PC12 cell adhesion on KAL (PC12 cells [3]): 50%

Molecule: laminin [reference compound]
- percentage of cell adhesion relative to PLL substrate (set as 100%) [4]: 50%

B1: KAL protein: recombinant human KAL gene product (680 aa, SwissProt P23352) purified from transfected CHO cells CHKAL2-3/d11 (protein)
chain: AGPGAAAARRLDESLSAGSVQRAPCASRCLSLQITRISAFFQHFQNNGSLVWCQNHKQCSKCLEPCKESGDLRKHQCQSFCEPLFPKKSYECLTSCEFLKYILLVKQGDCPAPEKASGFAAACVESCEVDNECSGVKKCCSNGCGHTCQVPKTLYKGVPLKPRKELRFTELQSGQLEVKWSSKFNISIEPVIYVVQRRWNYGIHPSEDDATHWQTVAQTTDERVQLTDIRPSRWYQFRVAAVNVHGTRGFTAPSKHFRSSKDPSAPPAPANLRLANSTVNSDGSVTVTIVWDLPEEPDIPVHHYKVFWSWMVSSKSLVPTKKKRRKTTDGFQNSVILEKLQPDCDYVVELQAITYWGQTRLKSAKVSLHFTSTHATNNKEQLVKTRKGGIQTQLPFQRRRPTRPLEVGAPFYQDGQLQVKVYWKKTEDPTVNRYHVRWFPEACAHNRTTGSEASSGMTHENYIILQDLSFSCKYKVTVQPIRPKSHSKAEAVFFTTPPCSALKGKSHKPIGCLGEAGHVLSKVLAKPENLSASFIVQDVNITGHFSWKMAKANLYQPMTGFQVTWAEVTTESRQNSLPNSIISQSQILPSDHYVLTVPNLRPSTLYRLEVQVLTPGGEGPATIKTFRTPELPPSSAHRHLKHRHPHHYKPSPERY
- percentage of adherent cells relative to the total number of cells deposited (cerebellar granule cells): 80%
- survival and neurite outgrowth of granule cell aggregates on coated surface [5]: large halo of neuritic processes
- concentration of KAL protein giving maximum percentage of cell adhesion (PC12 cells [2]; coating concentration, results not shown, cell type not specified): 5 µg/mL
- decrease of adhesion of CHO-677 cells compared to wild-type CHO-K1 cells (CHO-677 cells; KAL substrate): about 70%
- stimulation of neurite elongation by comparison with fibronectin and peptide 32R1 ([1]; eight hours after plating): 30%
- mean neurite length per olfactory neuron ([1]; eight hours after plating): 81 (±5) μm
- mean neurite length per olfactory neuron ([1]; one hour on substrate): 66 (±2,5) μm
- adhesion of CHO-606 cells to the substrate (CHO-606 cells): comparable to that found in wild-type
- percentage of cell adhesion relative to PLL substrate (set as 100%) [4]: 80%
- percentage of olfactory neurons (line 24) adherent on substrate [6]: 70%
- adhesion of CHO-745 cells on the substrate (CHO-745 cells): No adhesion
